What is called Kd is the equilibrium constant for the complex coming apart. Low values mean a tighter complex, high ones a looser complex. Usually koff stands for the rate constant with which the complex falls apart. Read a high koff as fast dissociation. Broadly, the kon is the second-order rate constant of association. A low value points to slower complex formation.

Assay [1] addresses T1, PF4/heparin complex (human PF4 complexed with heparin) (human, UniProt P02776 32-101).
T1 sequence: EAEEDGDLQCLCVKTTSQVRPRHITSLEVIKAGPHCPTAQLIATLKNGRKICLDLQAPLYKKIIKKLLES
Briefly: cell-based or functional assay.

Assay [2] has as its target T1, PF4/heparin complex (human PF4 …). Briefly: BLI (Octet), biotinylated PF4/heparin on streptavidin sensors, scFv 1 µg/mL. How it is done:
(§1) The Octet-QK Red 96 (FortéBio, Menlo Park, CA) instrumentation was used to conduct all BLI experiments. A 96-well microtiter plate (black, flat-bottom) was used to hold 200 μL per well of either sample or buffer. Pre-coated streptavidin biosensor tips (FortéBio) were hydrated in phosphate buffered saline (PBS) containing 1% bovine serum albumin (BSA, Sigma-Aldrich) before performing all kinetic assays. Each step was performed at an operating temperature of 23° C. with agitation at 1000 rpm. Streptavidin tips were first equilibrated in PBS+1% BSA to establish a baseline. […] The PF4-coated tips were then dipped into PBS+1% BSA for 13 minutes to re-establish a baseline. Tips were then incubated in an analyte solution containing half-fold dilutions of wildtype scFv (4.0, 2.0, 1.0, 0.5, 0.25 μg/mL in PBS+1% BSA) for 10 minutes to measure association. For mutant scFv association, tips were incubated in an analyte solution containing 200 μL of each mutant and wildtype scFv at a final concentration of 1 μg/mL in PBS+1% BSA. Antibody dissociation steps were performed by dipping sensors in wells containing PBS+1% BSA for 56 minutes. The following negative controls included in these kinetic experiments were also measured: 200 μL of buffer to replace both the antigen and scFv and 200 μL buffer replacing scFv only. Each experiment was performed with PF4 or with PF4/heparin as the immobilized antigen.
(§2) BLI experiments were performed to evaluate binding responses and affinities of wildtype and mutant scFv. Biotinylated PF4 alone or complexed with heparin was immobilized on streptavidin biosensors and used to capture wildtype scFv. Half-fold serial dilutions of wildtype scFv ranging from 0.25 μg/mL to 4 μg/mL were used to determine the optimal concentrations for future experiments PF4 (PF4 FIG. 3; PF4/heparin FIG. 4).
(BLI is a label-free optical method that tracks binding on a fibre tip over time.)

Assay [3] has the same target. Briefly: competition EIA, scFv 50 µg/mL; competitor HIT-negative sera antibodies, n=10. How it is done:
(§3) Inhibitory PF4/heparin IgG-specific Streptavidin Enzyme Immunoassay (EIA). The binding activity of wildtype and mutant scFv antibodies to PF4/heparin complexes was measured using an inhibitory PF4/heparin IgG-specific EIA with a streptavidin-biotin capture system. Before performing this protocol, 96-well NUNC Maxisorp plates (ThermoFisher) were coated with 10 μg/mL streptavidin for 24 h. Plates were then blocked with 3% bovine serum albumin (BSA) in phosphate buffered saline (PBS) for 2 h at room temperature. Plates were then coated with 1 U/mL biotinylated-heparin for 1 h followed by 30 μg/mL PF4 for 1 h. Increasing concentrations of wildtype or mutant scFv were added and incubated for 1 hr at room temperature. Without removing wildtype or scFv, HIT patient sera in a 1:50 dilution or full-length KKO (2 μg/mL) was then incubated for 1 h at room temperature. After washing, alkaline phosphatase-conjugated anti-human or anti-mouse IgG (Jackson Immuno Research Laboratories, Inc., West Grove, PA) was added at a 1:4000 dilution and incubated for 1 h temperature. For detection, 1 mg/mL p-nitrophenylphosphate (PNPP, Sigma-Aldrich) substrate dissolved in 1 mol/L diethanolamine (DEA) buffer (pH 9.6) was added. The optical density (OD) was measured at 2 min intervals for 30 min at 405 nm (OD₄₀₅ₙₘ) using a BioTek 800 TS plate reader (BioTek Instruments Inc., Winooski, VT) to determine if anti-PF4/heparin antibody binding was inhibited. Results were reported as a decrease in OD (absorbance at 405 nm) from baseline levels.
Sera (n=10) from confirmed HIT-negative patients (EIA-positive/SRA-negative) containing anti-PF4/heparin antibodies were then used in the same EIA with scFv constructs to determine if antibody binding was decreased in this cohort (Table 5).

Assay [4] has the same target. As to the kind of experiment: competition EIA, scFv 50 µg/mL; competitor HIT-positive sera antibodies, n=10. As to the method:
as §3
Inhibiting HIT-Positive (EIA+/SRA+) HIT-Negative (EIA+/SRA−) antibody binding: Sera (n=10) from confirmed HIT-positive patients (EIA-positive/SRA-positive) containing anti-PF4/heparin antibodies were used in a modified streptavidin-biotin based anti-PF4/heparin IgG EIA (streptavidin anti-PF4/hep EIA) with scFv at 50 μg/mL. On average, antibody binding to PF4/heparin was reduced in the presence of scFv.

The target is the same in assay [5]. Briefly: competition EIA, scFv 50 µg/mL; competitor HIT-negative sera antibodies, n=10. This is another data set of the same source.
The target is the same in assay [6]. As to the kind of experiment: competition EIA, scFv 50 µg/mL; competitor HIT-positive sera antibodies, n=10. The source holds these as a separate data set.
Assay [7] deals with T2, Human PF4 (CXCL4), biotinylated, without heparin (human, UniProt P02776 32-101, biotinylated with EZ-link-Sulfo-NHS-LC-Biotin (sites not given)).
T2 construct: Immobilised on streptavidin biosensors for BLI; also called PF4 alone; platelet factor 4
T2 sequence: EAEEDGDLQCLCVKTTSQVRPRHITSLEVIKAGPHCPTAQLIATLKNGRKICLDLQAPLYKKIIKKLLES
Briefly: BLI (Octet), biotinylated PF4 without heparin on streptavidin sensors, scFv 1 µg/mL. As to the method:
as §1, §2

The target in assay [8] is T1, PF4/heparin complex (human PF4 …). Briefly: BLI (Octet), biotinylated PF4/heparin on streptavidin sensors, scFv 1 µg/mL, 1:1 model. How it is done:
as §1, §2

The target in assay [9] is T2, Human PF4 (CXCL4), biotinylated, …. As to the kind of experiment: BLI (Octet), biotinylated PF4 without heparin on streptavidin sensors, scFv 1 µg/mL, 1:1 model. How it is done: as §1, §2
The target of assay [10] is T1, PF4/heparin complex (human PF4 …). As to the kind of experiment: BLI (Octet), biotinylated PF4/heparin on streptavidin sensors, scFv at 1 µg/mL, 1:1 model, mean ± s.d. As to the method:
BLI experiments were performed using wildtype scFv, mutant B, mutant C, mutant D, mutant E, and mutant F at 1 μg/mL. Binding was measured against immobilized biotinylated PF4/heparin complexes on streptavidin biosensors. b) Table showing kinetic data of wildtype and mutant scFv, including binding responses and association and dissociation rates. All data was analyzed based on a 1:1 homogenous ligand binding model using Octet®) User Software version 3.1.
as §1
(§4) BLI experiments were performed to evaluate binding responses and affinities of wildtype and mutant scFv. Biotinylated PF4 alone or complexed with heparin was immobilized on streptavidin biosensors and used to capture wildtype scFv.

Assay [11] has as its target T2, Human PF4 (CXCL4), biotinylated, …. Briefly: BLI (Octet), biotinylated PF4 without heparin on streptavidin sensors, scFv at 1 µg/mL, 1:1 model, mean ± s.d. [cont.) b]. How it is done: BLI experiments were performed using wildtype scFv, mutant B, mutant C, mutant D, mutant E, and mutant F at 1 μg/mL. Binding was measured against immobilized biotinylated PF4 on streptavidin biosensors. b) Table showing kinetic data of wildtype and mutant scFv, including binding responses and association and dissociation rates. All data was analyzed based on a 1:1 homogenous ligand binding model using Octet® User Software version 3.1.
as §1, §4

B1: Mutant C scFv, scFv(S50N, Y53H) (scFv)
scFv: DIQMIQSQKFMSTSVGDRVTVTCKASQNVGTNVAWYQQKPGQSPNALIYNASHRYSGVPDRFTGSGSGTDFTLTITNVQSEDLADYFCQQYNSYPLTFGTGTKLDLKGGGGSGGGGSGGGGSVQLQQSGAELVKPGASVKLSCKASGYTFTNYFIYWVKQRPGQGLEWIGEINPRNGDTDFNEKFESRATLTVDKSSSTAYMQLSSLTSEDSAIYYCTRSPYGNNYGFTYWGQGTLVTVSA
notes: VL-linker-VH; histidine-tagged, from E. coli BL21; also called Mut C; not shown: histidine tag from the pADL-22c vector
As to B1, in assay [1], the “% inhibition of 14C-serotonin release (SRA), HIT-Positive Patient #1 serum, scFv 50 µg/mL” value is 14.4%; the “% inhibition of 14C-serotonin release (SRA), HIT-Positive Patient #1 serum, scFv 75 µg/mL” value was 22.2%; the “% inhibition of 14C-serotonin release (SRA), HIT-Positive Patient #2 serum, scFv 50 µg/mL” value worked out at 15.4%; the “% inhibition of 14C-serotonin release (SRA), HIT-Positive Patient #2 serum, scFv 75 µg/mL” value was 21.8%. Further, in [1], the “% inhibition of 14C-serotonin release (SRA), HIT-Positive Patient #3 serum, scFv 50 µg/mL” value was -1.2%; the “% inhibition of 14C-serotonin release (SRA), HIT-Positive Patient #3 serum, scFv 75 µg/mL” value came out at 9.6%; the “% inhibition of 14C-serotonin release (SRA), HIT-Positive Patient #4 serum, scFv 50 µg/mL” value is 3.3%; the “% inhibition of 14C-serotonin release (SRA), HIT-Positive Patient #4 serum, scFv 75 µg/mL” value turned out to be 5.6%. For the same molecule, in assay [1], the “% inhibition of 14C-serotonin release (SRA), HIT-Positive Patient #5 serum, scFv 50 µg/mL” value worked out at 22.2% and the “% inhibition of 14C-serotonin release (SRA), HIT-Positive Patient #5 serum, scFv 75 µg/mL” value is 6.9%. Also, in assay [2], the “average binding response (wavelength shift)” value was determined as 0.159 nm and the “fold higher binding response than wildtype scFv” value amounted to 2 fold. In assay [3], the “mean OD405nm of bound serum IgG (+ scFv)” value was 1.24 OD405nm. In addition, in assay [4], the “mean OD405nm of bound serum IgG (+ scFv)” value came out at 0.799 OD405nm. Moreover, the “mean % inhibition of serum antibody binding” value in assay [5] was -42.5%. Besides, the “mean % inhibition of serum antibody binding” value in assay [6] amounted to 50.6%. Besides, the “average binding response (wavelength shift)” value in [7] came to 0.0399 nm. Moreover, in assay [8], the Kd is 3.81 nM and the “fold increased affinity against wildtype scFv” value stood at 10 fold. The molecule further gave a Kd in [9] of 1660 nM. In [10], this molecule showed a koff of 0.000477 s⁻¹ and a kon of 85800 M⁻¹ s⁻¹. Also, in assay [11], the off-rate (koff) is 0.000215 s⁻¹ and the kon amounted to 16900 M⁻¹ s⁻¹.

Values taken from US20250011413A1 (MCMASTER UNIVERSITY, published 2025).
